According to paper PMC8573170 (2021):

Columns and labels:
[1] = biological target: T1, alpha-thrombin (Homo sapiens, UniProt P00734); assay: inhibition of S-2238 hydrolysis, Morrison fit
[2] = biological target: T1, alpha-thrombin; assay: inhibition of S-2238 hydrolysis, Kiapp versus substrate concentration regression
[3] = biological target: T1, alpha-thrombin; assay: SPR

KPVEAEVAQSNLDECEVEAEVAQPKLYQRGEGGNGMEPIPEDVLNEALNA [XC-42 mature peptide]
Ki [1]: 18 pM

KPVEAEVAQPKLYQRGEGGNGMEPIPEDVLNEALNA [XC-43 mature peptide]
Ki [1]: 6.1 pM
Ki [2]: 7.7 pM
Kd [3]: 3 pM
